Assay results from US20100291188A1, “Periostin Inhibitory Compositions for Myocardial Regeneration, Methods of Delivery, and Methods of Using Same” (MUSC FOUNDATION FOR RESEARCH DEVELOPMENT, priority 2008, published 2010).
Entries after “also recorded” stand apart in the source; their conditions may differ.

Assays:
wild-type fibroblast = assay: Fibroblast migration on periostin and collagen coated dishes; assay type: cell-based; conditions: varying amounts of periostin and collagen coated on dishes
Description: FIG. D-2: Varying amounts of periostin and collagen coated dishes were assayed for their ability to promote wild-type fibroblast migration.
A final additional approach to be considered for this aim involves alternative migration assays. Scratch assays are a standard two-dimensional in vitro “wounding” assay whereby a small scratch is introduced into a confluent monolayer of cells and the time the cells take to invade and fill in the empty area provides a measure of migration^78. Thus, these assays will be employed to assess the 2-dimensional migratory capabilities of the “unidentified cells”. The time it takes for “unidentified” cells to fill the gap will be compared to that of wild-type cardiac fibroblasts. Preliminary data on fibroblasts has been previously performed and serves as a benchmark for comparison (FIG. D-2). This 2-D culture assay will serve as a nice complement to the 3-D migration and invasion assay proposed in Experiment 2.

[1] = tested on: Mesenchyme from periostin null mice; assay: Hanging drop culture of periostin null mesenchyme with purified periostin protein, Western analysis for collagen I; assay type: cell-based, mouse; conditions: 7 days, purified periostin protein 10 µg/ml vs PBS
Description: FIG. C-4: Periostin regulates collagen I synthesis. Mesenchyme from periostin null mice were placed in hanging drop cultures and incubated with either purified periostin protein (10 µg/ml) or PBS. Mesenchyme from wild-type mice were used as control tissues. After 7 days, tissues were analyzed for periostin and collagen expression by Western analysis. […] Actin is used for protein normalization (B) Graphical representation of Western analyses presented in panel A obtained from densitometric analyses using NIH image software. Values obtained were compared against wild-type values (baseline) and represented as relative percent change. * denotes p<0.05
To further determine the potential for periostin to affect fibroblast differentiation, we compared mesenchymal cells isolated from periostin null and wild-type mice, in addition to performing “rescue” experiments. For this study, we isolated atrioventricular mesenchyme from E12.5 periostin null and wild-type mice and placed them in hanging drop cultures for 7 days. In addition, purified protein was added to a subset of the hanging drops to determine the ability to rescue any defects observed in marker expression. After 7 days, the hanging drops were collected, lysed and Western analyses were performed for the fibroblast markers collagen I[…]I, and I[…]2. […]

B1: purified periostin protein: purified periostin protein, 90 kDa secreted matricellular protein; added to culture medium or coated on dishes (protein, UniProt Q15063 22-836, looked up)
Periostin: NNHYDKILAHSRIRGRDQGPNVCALQQILGTKKKYFSTCKNWYKKSICGQKTTVLYECCPGYMRMEGMKGCPAVLPIDHVYGTLGIVGATTTQRYSDASKLREEIEGKGSFTYFAPSNEAWDNLDSDIRRGLESNVNVELLNALHSHMINKRMLTKDLKNGMIIPSMYNNLGLFINHYPNGVVTVNCARIIHGNQIATNGVVHVIDRVLTQIGTSIQDFIEAEDDLSSFRAAAITSDILEALGRDGHFTLFAPTNEAFEKLPRGVLERIMGDKVASEALMKYHILNTLQCSESIMGGAVFETLEGNTIEIGCDGDSITVNGIKMVNKKDIVTNNGVIHLIDQVLIPDSAKQVIELAGKQQTTFTDLVAQLGLASALRPDGEYTLLAPVNNAFSDDTLSMDQRLLKLILQNHILKVKVGLNELYNGQILETIGGKQLRVFVYRTAVCIENSCMEKGSKQGRNGAIHIFREIIKPAEKSLHEKLKQDKRFSTFLSLLEAADLKELLTQPGDWTLFVPTNDAFKGMTSEEKEILIRDKNALQNIILYHLTPGVFIGKGFEPGVTNILKTTQGSKIFLKEVNDTLLVNELKSKESDIMTTNGVIHVVDKLLYPADTPVGNDQLLEILNKLIKYIQIKFVRGSTFKEIPVTVYTTKIITKVVEPKIKVIEGSLQPIIKTEGPTLTKVKIEGEPEFRLIKEGETITEVIHGEPIIKKYTKIIDGVPVEITEKETREERIITGPEIKYTRISTGGGETEETLKKLLQEEVTKVTKFIEGGDGHLFEDEEIKRLLQGDTPVRKLQANKKVQGSRRRLREGRSQ
fibroblast migration (wild-type fibroblast): titrating affect of periostin in combination with collagen to stimulate migration | collagen I expression (collagen Iα1 and Iα2, Western analysis) [1]: rescued; also recorded: induces expression of collagen I[…]1 and I[…]2 | collagen I expression (collagen Iα1 and Iα2, Western analysis) ([1]; listed as purified protein): reactivation of collagen isoforms
